Test results reported in paper PMC3183090, “A Noncoding Point Mutation of Zeb1 Causes Multiple Developmental Malformations and Obesity in Twirler Mice”.

Columns and labels:
[1] = target: T1, C-Myb (mouse, UniProt P06876 1-636); test: EMSA; 20 ul reactions with EMSA Accessory Kit (Novagen), 6% DNA retardation gel; buffer composition, salt, pH and temperature not stated; details: protein: recombinant; tags: pET-41a(+) vector tags (Ni-NTA purified); blunt
[2] = target: T1, C-Myb; test: competition; unlabeled, 25- or 50-fold molar excess vs labeled N1; complete inhibition; 20 ul reactions with EMSA Accessory Kit (Novagen), 6% DNA retardation gel; buffer composition, salt, pH and temperature not stated; details: protein: recombinant; tags: pET-41a(+) vector tags (Ni-NTA purified); 5' overhang 1 nt on strand 1 as printed (S6 lacks the 3' C)

T1 sequence (P06876 whole entry): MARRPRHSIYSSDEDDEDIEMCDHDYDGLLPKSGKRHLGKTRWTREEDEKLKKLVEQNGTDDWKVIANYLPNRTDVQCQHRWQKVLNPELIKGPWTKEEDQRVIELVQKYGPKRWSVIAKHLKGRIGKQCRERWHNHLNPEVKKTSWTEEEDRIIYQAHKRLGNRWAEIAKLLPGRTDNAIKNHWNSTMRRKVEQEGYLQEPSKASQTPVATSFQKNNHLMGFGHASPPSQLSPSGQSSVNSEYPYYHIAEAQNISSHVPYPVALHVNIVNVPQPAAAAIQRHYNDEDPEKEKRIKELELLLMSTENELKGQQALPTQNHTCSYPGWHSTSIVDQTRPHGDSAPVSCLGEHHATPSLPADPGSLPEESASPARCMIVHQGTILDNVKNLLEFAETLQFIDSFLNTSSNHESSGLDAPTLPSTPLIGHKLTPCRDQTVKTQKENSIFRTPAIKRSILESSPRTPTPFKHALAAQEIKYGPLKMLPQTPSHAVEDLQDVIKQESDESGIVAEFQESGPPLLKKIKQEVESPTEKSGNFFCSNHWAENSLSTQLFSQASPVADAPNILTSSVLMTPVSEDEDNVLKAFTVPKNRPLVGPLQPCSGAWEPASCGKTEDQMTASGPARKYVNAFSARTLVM

Binder | binding result [1] | binding result [2]
Zeb1 c.58+181G (wild type) probe (dsDNA) DNA 1: TGCTGGACTGGACCGTTATGTCTTACCTGC DNA 2: GCAGGTAAGACATAACGGTCCAGTCCAGCA | binds | –
mim-1 C-Myb site control (dsDNA) DNA 1: GCTCTAAAAAACCGTTATAATGTACAGATATCTT DNA 2: AAGATATCTGTACATTATAACGGTTTTTTAGAG | – | binds
Zeb1 c.58+181A (Twirler) probe (dsDNA) DNA 1: TGCTGGACTGGACCATTATGTCTTACCTGC DNA 2: GCAGGTAAGACATAATGGTCCAGTCCAGCA | no binding | –
